These binders were tested against T1, mouse pathogenic prion protein PrP^Sc (RML, in infected Balb-c mouse brain homogenate) (mouse), P04925 (assay: bead pull-down from PrPSc+ mouse brain homogenate; ELISA).
T1 sequence (P04925 23-230 limits assumed): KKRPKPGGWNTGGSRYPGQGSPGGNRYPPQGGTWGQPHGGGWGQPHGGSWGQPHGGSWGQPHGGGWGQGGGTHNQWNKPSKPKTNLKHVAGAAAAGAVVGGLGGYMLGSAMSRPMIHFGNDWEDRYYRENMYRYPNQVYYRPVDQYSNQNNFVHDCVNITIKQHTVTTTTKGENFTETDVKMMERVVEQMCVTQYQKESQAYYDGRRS
GGGAGAAAAGAVVGGLGG (modifications not checked) [peptide reagent of SEQ ID NO:56] showed an ELISA A405 nm of 0.313 A405 nm.
With KKKAGAAAAGAVVGGLGG (modifications not checked) [peptide reagent of SEQ ID NO:65] the ELISA A405 nm was 0.635 A405 nm.
Work on GGGGPKRKGPK (modifications not checked) [peptide reagent of SEQ ID NO:73] yielded an ELISA A405 nm of 1.06 A405 nm.
For GGGNKPSKPK (modifications not checked) [peptide reagent of SEQ ID NO:79], the ELISA A405 nm was 0.24 A405 nm.
GGGKPSKPK (modifications not checked) [peptide reagent of SEQ ID NO:80] gave an ELISA A405 nm of 0.225 A405 nm.
With GGGKKRPKPGGGKKRPKPGG (modifications not checked) [peptide reagent of SEQ ID NO:72 (tandem repeat)] the ELISA A405 nm was 0.522 A405 nm.
GGGKKKKKKKK (modifications not checked) [peptide reagent of SEQ ID NO:85] showed an ELISA A405 nm of 0.53 A405 nm.
With GGGKKRAKAGG (modifications not checked) [peptide reagent of SEQ ID NO:98] the ELISA A405 nm was 1.46 A405 nm.

The binders below were run against T1, mouse pathogenic prion protein PrP^Sc … (assay: not given).
GGGKARPKPGG (modifications not checked) [peptide reagent of SEQ ID NO:105] showed an ELISA A405 nm of 0.256 A405 nm.
With GGGKKAPKPGG (modifications not checked) [peptide reagent of SEQ ID NO:106] the ELISA A405 nm was 0.268 A405 nm.
GGGKKRPAPGG (modifications not checked) [peptide reagent of SEQ ID NO:107] was tested, and the ELISA A405 nm was 0.578 A405 nm.

— US20060035242A1
